Source: patent US11697815B2, “Regulation of gene expression through aptamer-modulated polyadenylation” (MeiraGTx UK II Limited, priority 2016, dated 2023)

Assays:
Assay type in all cases: cell-based
[1] = tested on: firefly luciferase expression; test: Firefly luciferase assay of HEK 293 cells transfected with U1_Gua riboswitch constructs, with or without guanine; settings: for fold increase of luciferase activity upon guanine treatment: 500 μM guanine
Text: Plasmid constructs: The EGFP gene in pEGFP-C1 vector was replaced with firefly luciferase gene coding sequence to generate a pFLuc vector that contains an SV40 early polyadenylation signal sequence. Oligos containing either wild type or mutant U1 binding site from the 5′ splice site of human DHFR exon 2 and xpt-guanine aptamer sequence followed by the complementary sequence of the last 7 nt of the U1 site sequence were synthesized (IDT) and cloned into the pFLuc vector using the Gibson cloning strategy and kit (NEB).
Transfection and aptamer ligand treatment: HEK 293 cells were transfected as described in Example 1. Four hours after transfection, the media was aspirated, and new media with or without 500 μM guanine was added.
Firefly luciferase assay of cultured cells: Twenty-four hours after the media change, the plates were removed from the incubator, and equilibrated to RT for several minutes on a lab bench, then aspirated. Glo-lysis buffer (Promega, 100 uL, RT) was added, and the plates allowed to remain at RT for at least 5 minutes. Then, the well contents were mixed by 50 uL trituration, and 20 uL of each sample was mixed with 20 μL of bright-glo reagent (Promega) that had been diluted to 10% in glo-lysis buffer. The 96 wells were spaced on an opaque white 384-well plate. Following a 5 min incubation at RT, luminescence was measured using a Tecan machine with 500 mSec read time. The luciferase activity was expressed as mean relative light unit (RLU)±S.D.
Plasmid constructs: SV40 early polyadenylation sequence was replaced with human beta globin polyA sequence in pFLuc vector to generate pFLuc_HBGPA. Oligos containing either wild type or mutant U1 binding site from 5′ ss of human DHFR exon 2 and xpt-guanine aptamer sequence followed by the complementary sequence of last 7 nt of U1 site sequence were synthesized (IDT) and cloned into pFLuc_HBGPA vector using Gibson cloning strategy and kit (NEB).
Transfection and luciferase assay were as described in Example 7.

[2] = tested on: Renilla luciferase expression; test: Renilla luciferase assay of HEK 293 cells transfected with U1_theo riboswitch constructs, with or without theophylline
Procedure: Transfection: 3.5×10^4 HEK 293 cells were plated in a 96-well flat bottom plate the day before transfection. Plasmid DNA (500 ng) was added to a tube or a 96-well U-bottom plate. Separately, TransIT-293 reagent (Mirus; 1.4 μl) was added to 50 μl Opti-mem I media (Life Technologies), and allowed to sit for 5 minutes at room temperature (“RT”). Then, 50 μl of this diluted transfection reagent was added to the DNA, mixed, and incubated at RT for 20 min. Finally, 7 μl of this solution was added to a well of cells in the 96-well plate.
Renilla luciferase assay of cultured cells: 24 hours after the media change, plates were removed from the incubator, and equilibrated to RT for several minutes on a lab bench, and the media aspirated. Glo-lysis buffer (Promega, 100 μl, RT) was added, and the plates allowed to remain at room temp for at least 5 minutes. Then, the well contents were mixed by 50 μl trituration, and 20 μl of each well was mixed with 20 μl of Renilla-glo reagent in a solid-white 384-well plate. Ten minutes later, luminescence was measured using a Tecan machine with 500 msec read time. The luciferase activity was expressed as mean relative light unit (RLU)±SD.
Oligonucleotides containing either the full length of sequences of the stem from the stem-loop structure and theophylline aptamer or the truncated sequences of the stem, were synthesized (IDT) and cloned into pRL-SV40 vector using the Gibson Assembly Cloning Kit (NEB). Construct sequences were verified by DNA sequencing (Genewiz).
Transfection and aptamer ligand treatment: HEK 293 cells were transfected as described in Example 1. Four hours after transfection, the media was aspirated, and new media with or without 3 mM theophylline was added. A Renilla luciferase assay was performed 20 to 24 hours after theophylline treatment as described in Example 1. The induction fold was expressed as the quotient of luciferase activity obtained in the presence of aptamer ligand divided by the value obtained in the absence of the aptamer ligand.
Oligos containing 4 copies of the U1_theo_8_1 sequence in tandem were synthesized (IDT) and cloned using Gibson strategy and cloning kit (NEB). HEK 293 cells were transfected and Renilla luciferase assay was performed as described in Example 4.

[3] = tested on: Renilla luciferase expression; test: as above; remark: listed apart in the source

B1: wtU1_Gua_HBGPA: wild type U1 site with xpt-guanine aptamer in pFLuc_HBGPA (human beta globin polyA sequence) (nucleic acid)
DNA: TCATAAAGGCCAAGAAGGGCGGAAAGATCGCCGTGTAAGGATCCAAGCTTATCGATACCGTCGACCTCGAGGTAATGTATAATCGCGTGGATATGGCACGCAAGTTTCTACCGGGCACCGTAAATGTCCGACTACATTACGGCCCAGATCTAATTCACCCCACCAGTGCAGGCTGCCTATCAGAAAGTGGTGGCTGGTGTGGCTAATGCCCTGGCCCACAAGTATCACTAAGCTCGCTTTCTTGCTGTCCAATTTCTATTAAAGGTTCCTTTGTTCCCTAAGTCCAACTACTAAACTGGGGGATATTATGAAGGGCCTTGAGCATCTGGATTCTGCCTAATAAAAAACATTTATTTTCATTGCAATGATGTATTT
modifications: in pFLuc_HBGPA; wtU1_Gua_HBGPA
fold increase of luciferase activity upon guanine treatment ([1]; human beta globin polyA sequence (pFLuc_HBGPA)): 2.1 fold

B2: mutU1_Gua_HBGPA: mutant U1 site with xpt-guanine aptamer in pFLuc_HBGPA (nucleic acid)
DNA: TCATAAAGGCCAAGAAGGGCGGAAAGATCGCCGTGTAAGGATCCAAGCTTATCGATACCGTCGACCTCGATGGAATCTATAATCGCGTGGATATGGCACGCAAGTTTCTACCGGGCACCGTAAATGTCCGACTACATTACGGCCCAGATCTAATTCACCCCACCAGTGCAGGCTGCCTATCAGAAAGTGGTGGCTGGTGTGGCTAATGCCCTGGCCCACAAGTATCACTAAGCTCGCTTTCTTGCTGTCCAATTTCTATTAAAGGTTCCTTTGTTCCCTAAGTCCAACTACTAAACTGGGGGATATTATGAAGGGCCTTGAGCATCTGGATTCTGCCTAATAAAAAACATTTATTTTCATTGCAATGATGTATTT
modifications: in pFLuc_HBGPA; mutU1_Gua_HBGPA
induction of luciferase activity upon guanine treatment (in words) ([1]; guanine vs untreated, human beta globin polyA sequence): didn't induce luciferase activity

B3: U1_Gua_1: DHFR exon 2 5′ splice site U1 site linked with xpt-guanine aptamer, 149 nt upstream of SV40 early poly(A) in pFLuc (nucleic acid)
DNA: TCATAAAGGCCAAGAAGGGCGGAAAGATCGCCGTGTAAGCCATACCACATTAAGGTAATGTATAATCGCGTGGATATGGCACGCAAGTTTCTACCGGGCACCGTAAATGTCCGACTACATTACTGTAGAGGTTTTACTTGCTTTAAAAAACCTCCCACACCTCCCCCTGAACCTGAAACATAAAATGAATGCAATTGTTGTTGTTAACTTGTTTATTGCAGCTTATAATGGTTACAAATAAAGCAATAGCATCACAAATTTCACAAATAAAGCATTTTTTTCACTGCATTCTAGTTGTGGTTTGTCCAAACTCATCAATGTATCTTAA
modifications: in pFLuc; U1_Gua_1 wt in pFLuc
notes: DHFR exon 2 5′ splice site U1 site linked with xpt-guanine aptamer, 149 nt upstream of SV40 early poly(A) in pFLuc
fold increase of luciferase activity upon guanine treatment ([1]; SV40 early poly(A) signal): 2.4 fold

B4: U1_theo_8_1: sequential stem mutation of U1_theo_8 in pRL-SV40 (nucleic acid)
DNA: TCAAATCGTTCGTTGAGCGAGTTCTCAAAAATGAACAATAATTCTAGAGCGGCCGCTTCGAGCAGACATGATAAGATACATTGATGAGTTTGGACAAACCAAACCCAGGTAAGTGATACCAGCCGAAAGGCCCTTGGCAGCACTTACCTGGACAACTAGAATGCAGTGAAAAAAATGCTTTATTTGTGAAATTTGTGATGCTATTGCTTTATTTGTAACCATTATAAGCTGCAATAAACAAGTTAACAACAAC
modifications: in pRL-SV40; U1_theo_8_1 in pRL-SV40
induction fold of luciferase activity (theophylline treated / untreated) ([2]; 3 mM theophylline, 20 to 24 hours): 1.8 fold

B5: U1_Gua_2: U1 site linked with xpt-guanine aptamer, 110 nt upstream of SV40 early poly(A) in pFLuc (nucleic acid)
DNA: TCATAAAGGCCAAGAAGGGCGGAAAGATCGCCGTGTAAGCCATACCACATTTGTAGAGGTTTTACTTGCTTTAAAAAACCTCCCACACCTAAGGTAATGTATAATCGCGTGGATATGGCACGCAAGTTTCTACCGGGCACCGTAAATGTCCGACTACATTACCCCCCTGAACCTGAAACATAAAATGAATGCAATTGTTGTTGTTAACTTGTTTATTGCAGCTTATAATGGTTACAAATAAAGCAATAGCATCACAAATTTCACAAATAAAGCATTTTTTTCACTGCATTCTAGTTGTGGTTTGTCCAAACTCATCAATGTATCTTAA
modifications: in pFLuc; U1_Gua_2 wt in pFLuc
notes: U1 site linked with xpt-guanine aptamer, 110 nt upstream of SV40 early poly(A) in pFLuc
fold increase of luciferase activity upon guanine treatment ([1]; SV40 early poly(A) signal): 2.0 fold

B6: U1_Gua_3: U1 site linked with xpt-guanine aptamer, 74 nt upstream of SV40 early poly(A) in pFLuc (nucleic acid)
DNA: TCATAAAGGCCAAGAAGGGCGGAAAGATCGCCGTGTAAGCCATACCACATTTGTAGAGGTTTTACTTGCTTTAAAAAACCTCCCACACCTCCCCCTGAACCTGAAACATAAAATGAATGCAATTGTAAGGTAATGTATAATCGCGTGGATATGGCACGCAAGTTTCTACCGGGCACCGTAAATGTCCGACTACATTACTGTTGTTAACTTGTTTATTGCAGCTTATAATGGTTACAAATAAAGCAATAGCATCACAAATTTCACAAATAAAGCATTTTTTTCACTGCATTCTAGTTGTGGTTTGTCCAAACTCATCAATGTATCTTAA
modifications: in pFLuc; U1_Gua_3 wt in pFLuc
notes: U1 site linked with xpt-guanine aptamer, 74 nt upstream of SV40 early poly(A) in pFLuc
fold increase of luciferase activity upon guanine treatment ([1]; SV40 early poly(A) signal): 1.7 fold

B7: 4 copies of U1-theo_8_1: 4 copies of the U1_theo_8_1 sequence in tandem in the 3′ UTR of pRL-SV40 (nucleic acid)
DNA: TCAAATCGTTCGTTGAGCGAGTTCTCAAAAATGAACAATAATTCTAGAGCGGCCGCTTCGAGCAGACATGATAAGATACATTGATGAGTTTGGACAAACCAAACCCAGGTAAGTGATACCAGCCGAAAGGCCCTTGGCAGCACTTACCTGGACAACTAGAATGCAGTGAAAAAAGAGTTTGGACAAACCAAACCCAGGTAAGTGATACCAGCCGAAAGGCCCTTGGCAGCACTTACCTGGACAACTAGAATGCAGTGAAAAAAATGCGAGTTTGGACAAACCAAACCCAGGTAAGTGATACCAGCCGAAAGGCCCTTGGCAGCACTTACCTGGACAACTAGAATGCAGTGAAAAAAATGCTTTATTTGTGAGAGTTTGGACAAACCAAACCCAGGTAAGTGATACCAGCCGAAAGGCCCTTGGCAGCACTTACCTGGACAACTAGAATGCAGTGAAAAAAATGCTTTATTTGTGAAATTTGTGATGCTATTGCTTTATTTGTAACCATTATAAGCTGCAATAAACAAGTTAACAACAAC
modifications: in pRL-SV40 3′ UTR; 4xU1_theo_8_1 in pRL-SV40
reduction of basal level expression compared to single copy of U1_theo_8_1 ([2]; no theophylline): 83%
change of luciferase activity after theophylline treatment (in words) ([2]; with vs without theophylline): increased the luciferase activity in a dose-dependent manner
maximal induction fold of luciferase activity ([3]; 6 mM theophylline): 4.3 fold
luciferase activity relative to 87-9 SL control vector ([3]; upon theophylline treatment, maximal at 6 mM): 40%
